# Measurements reported in PMC11585080 (ACS nano, 2019).
# How the values were obtained:
# Assay type in all cases: physicochemical
# [1] = ThT fluorescence assay of Aβ1–40 aggregation
# [2] = Phase diagram of Aβ1–40 aggregation in water/alcohol mixtures
# [3] = Analytical ultracentrifugation
# [4] = 6% HFIP, with sonication, 37 °C
# [5] = without TFE, with sonication, 10 μM Aβ1–40, 10 mM sodium phosphate buffer pH 7.5, 100 mM NaCl, 5 μM ThT, 37 °C, three independent measurements
# [6] = representatively selected peak, 2% HFIP, 25 °C
substance,measurement,setting,value
amyloid-β (1–40) [Aβ1–40],lag time before sigmoidal increase in ThT fluorescence,"[1]; 2% HFIP, quiescent, 10 μM, pH 7.5, 100 mM NaCl, 37 °C",~ 6 h
same,conversion rate constant (protofibrils to amyloid fibrils),[1]; [4],2.21 ± 0.85 h⁻¹
same,time at which the ThT reaction was completed,[1]; [4],~ 2 h
same,change in intensity of ThT fluorescence,"[1]; 6% HFIP, without sonication, after ~35 h, 37 °C",did not change
same,ThT fluorescence during incubation,"[1]; 50% HFIP, without sonication, test tubes, pH 7.5, 100 mM NaCl, 37 °C",maintained a very low intensity
same,effect of sonication on ThT fluorescence,"[1]; greater than 40% TFE, with sonication, 10 μM, pH 7.5, 100 mM NaCl, 37 °C",did not affect the ThT fluorescence
same,change in ThT-based kinetics and CD spectra,"[1]; more than 25% TFE, quiescent, 10 μM, pH 7.5, 100 mM NaCl, 37 °C",no change
same,change in ThT fluorescence intensity after incubation,"[1]; without TFE, quiescent, incubation ~2 days, 10 μM, pH 7.5, 100 mM NaCl, 37 °C",no change
same,elongation rate constant of amyloid fibrillation (ThT),[1]; [5],~ 10 h^−1
same,lag time of amyloid fibrillation (ThT),[1]; [5],~ 1 h
same,solubility state at high alcohol concentrations,"[2]; >40% TFE and >30% HFIP, regardless of extensive sonication",remained soluble
same,amyloid-forming region,"[2]; water/TFE mixtures, with sonication, 100 mM NaCl, pH 7.5",0–25 % TFE
"Aβ1–40 oligomers: Aβ1–40 dissolved in 100% HFIP, diluted 10-fold with water; ThT-negative β-structured spherical oligomers",time of saturation of ThT fluorescence increase,"[1]; oligomers + 10 mM sodium phosphate buffer pH 7.5, 100 mM NaCl, quiescent, 37 °C",~ 35 h
same,increase in ThT intensity,"[1]; oligomers + NaCl alone (50–2000 mM), no pH shift, continuous shaking",no increase
same,change in ThT fluorescence intensity of oligomer solution,"[1]; oligomers without buffer (pH ~4), ~2 days without agitation, 37 °C",no changes
same,molecular weight of small oligomers,[3]; calculated from s-value ~5.2 S,~ 70 kDa
same,molecular weight of large oligomers,[3]; calculated from s-value ~24.7 S,~ 740 kDa
same,number of Aβ1–40 peptides forming small oligomers,[3]; from molecular weight ~70 kDa,~ 17
same,number of Aβ1–40 peptides forming large oligomers,[3]; from molecular weight ~740 kDa,~ 170
same,"sedimentation coefficient (s-value), large oligomers",[3]; [6],~ 24.7 S
same,"sedimentation coefficient (s-value), small oligomers",[3]; [6],~ 5.2 S
